Assay [1] deals with T1, RXFP1 (LGR7) receptor, on stably transfected HEK-293T cells (UniProt Q9HBX9 1-757, limits assumed).
T1 sequence (looked up): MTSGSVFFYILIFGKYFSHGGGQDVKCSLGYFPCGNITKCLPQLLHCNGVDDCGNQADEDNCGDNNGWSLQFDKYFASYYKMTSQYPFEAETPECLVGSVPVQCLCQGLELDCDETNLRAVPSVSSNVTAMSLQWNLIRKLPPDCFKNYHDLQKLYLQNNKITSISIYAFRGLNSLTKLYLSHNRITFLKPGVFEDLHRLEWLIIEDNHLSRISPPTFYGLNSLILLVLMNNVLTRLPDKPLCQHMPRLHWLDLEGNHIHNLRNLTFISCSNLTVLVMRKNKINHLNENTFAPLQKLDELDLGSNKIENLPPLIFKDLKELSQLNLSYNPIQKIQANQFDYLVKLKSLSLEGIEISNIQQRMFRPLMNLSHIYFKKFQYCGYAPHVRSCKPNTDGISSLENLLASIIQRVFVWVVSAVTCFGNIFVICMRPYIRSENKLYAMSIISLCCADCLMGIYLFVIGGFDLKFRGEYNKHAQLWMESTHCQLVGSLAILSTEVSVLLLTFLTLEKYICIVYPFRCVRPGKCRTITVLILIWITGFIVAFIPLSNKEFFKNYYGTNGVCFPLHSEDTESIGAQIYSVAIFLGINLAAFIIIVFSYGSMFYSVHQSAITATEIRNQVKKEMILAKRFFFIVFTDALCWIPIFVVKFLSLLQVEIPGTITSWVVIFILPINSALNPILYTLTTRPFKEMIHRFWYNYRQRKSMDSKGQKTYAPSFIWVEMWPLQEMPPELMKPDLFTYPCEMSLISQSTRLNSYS
The assay is described as follows: cell-based or functional assay.

The target in assay [2] is T1, RXFP1 (LGR7) receptor, on stably …. The assay can be described thus: Eu-H2 relaxin competition, whole HEK-293T cells stably expressing RXFP1. The protocol: Human embryonic kidney (HEK-293T) cells stably transfected with RXFP1 were cultured in RPMI 1640 medium supplemented with 10% fetal calf serum, 100 μg/ml penicillin, 100 μg/ml streptomycin and 2 mM L-glutamine and plated into 96-well pre-coated with poly-L-lysine for whole cell binding assays. Competition binding experiments were conducted with Eu³⁺-labelled H2 relaxin (as per Shabanpoor et al., 2012, Biochem Biophys Res Commun. 420, 253-256) in the absence or presence of increasing concentrations of unlabelled relaxin-2 B chain derivatives. Nonspecific binding was determined with an excess of unlabelled peptides (500 nM H2 relaxin). Fluorescent measurements were recorded at an excitation wavelength of 340 nm and emission of 614 nm on a Victor plate reader (Perkin-Elmer Inc.). […] Statistical differences in pIC₅₀ values were analyzed using one-way analysis of variance coupled to Newman Keul's multiple comparison test for multiple group comparisons in GraphPad Prism 6.
#p < 0.001 vs H2 relaxin ¹Data are presented as the mean ± S.E of the percentage of the total specific binding of triplicate wells, repeated in at least three separate experiments, and curves were fitted using one-site binding curves in GraphPad Prism 6 (GraphPad Inc, San Diego, CA).

Assay [3] deals with T2, 7BP: fusion protein comprising the extracellular domain of RXFP1 and the transmembrane domain of CD8, on cells (UniProt Q9HBX9 1-409).
T2 construct: extracellular domain;domain: transmembrane domain; also called 7BP cells; not shown: transmembrane domain of CD8
T2 sequence (looked up): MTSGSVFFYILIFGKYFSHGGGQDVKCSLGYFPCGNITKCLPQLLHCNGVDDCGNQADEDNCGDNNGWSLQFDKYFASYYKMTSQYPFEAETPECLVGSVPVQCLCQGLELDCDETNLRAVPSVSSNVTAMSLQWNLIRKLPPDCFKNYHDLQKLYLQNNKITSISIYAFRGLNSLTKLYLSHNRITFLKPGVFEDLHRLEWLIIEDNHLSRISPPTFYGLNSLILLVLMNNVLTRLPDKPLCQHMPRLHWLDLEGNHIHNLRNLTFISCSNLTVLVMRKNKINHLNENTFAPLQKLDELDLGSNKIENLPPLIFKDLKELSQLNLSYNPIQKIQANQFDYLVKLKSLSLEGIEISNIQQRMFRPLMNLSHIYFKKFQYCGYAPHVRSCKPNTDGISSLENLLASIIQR
The assay can be described thus: Eu-H2 relaxin competition on 7BP cells.

Assay [4] concerns the target T3, RXFP1 (LGR7) receptor, on stably transfected HEK-293T cells (UniProt Q9HBX9).
T3 sequence (looked up): T1 sequence (looked up)
The assay can be described thus: cell-based or functional assay.

Square brackets hold non-standard residues; d marks the D form. Ends that are not written are not given here. hArg = N=C(N)NCCCC[C@H](N)C(=O)O

B1: B7-33 C11.23S R17HR (peptide)
peptide: VIKLSGRELV[hArg]AQIAISGMSTWSKRSL-NH2
modifications: N-terminus assumed
SMILES: CC[C@H](C)[C@H](NC(=O)[C@H](C)NC(=O)[C@@H](NC(=O)[C@H](CCC(N)=O)NC(=O)[C@H](C)NC(=O)[C@H](CCCCNC(=N)N)NC(=O)[C@@H](NC(=O)[C@H](CC(C)C)NC(=O)[C@H](CCC(=O)O)NC(=O)[C@H](CCCNC(=N)N)NC(=O)CNC(=O)[C@H](CO)NC(=O)[C@H](CC(C)C)NC(=O)[C@H](CCCCN)NC(=O)[C@@H](NC(=O)[C@@H](N)C(C)C)[C@@H](C)CC)C(C)C)[C@@H](C)CC)C(=O)N[C@@H](CO)C(=O)NCC(=O)N[C@@H](CCSC)C(=O)N[C@@H](CO)C(=O)N[C@H](C(=O)N[C@@H](Cc1c[nH]c2ccccc12)C(=O)N[C@@H](CO)C(=O)N[C@@H](CCCCN)C(=O)N[C@@H](CCCNC(=N)N)C(=O)N[C@@H](CO)C(=O)N[C@@H](CC(C)C)C(N)=O)[C@@H](C)O
As for B1, the “cAMP pEC50” value in assay [1] was < 5 log M. Besides, in assay [2], the pKi worked out at 6.52 log M.

B2: KKKK (AcB7-29 C11.23S) (peptide)
peptide: Ac-VIKLSGRELVRAQIAISGMSTWSKKKK-NH2
notes: AcB7-29 C11.23S with KKKK at the C-terminus in place of KRSL
Regarding B2, in assay [1], the “cAMP pEC50” value turned out to be 5.81 log M. Also, the pKi stood at 8.91 log M in assay [3] and 6.25 log M in assay [2].

B3: native H2 relaxin (human relaxin-2, heterodimer of A chain and B1-29 B chain) (ligand)
chain 1: QLYSALANKCCHVGCTKRSLARFC
chain 2: DSWMEEVIKLCGRELVRAQIAICGMSTWS
modifications: disulfide (positions not given here); ends not checked; also: three disulfides (two inter-chain, one within A chain), places not given here
notes: mature; Two chains linked by three disulfide bonds (two inter-chain, one within the A chain); also called native human relaxin-2; Eu^3+-labelled H2 relaxin (tracer form)
On to B3, for which the “cAMP pEC50” value in assay [1] came to 10.5 log M. Also, the pKi is 8.97 log M in assay [3] and 8.96 log M in assay [2].

VIKLSGRELVRAQIAISGMSTWS-NH2 [B7-29 C11.23S]: the “cAMP pEC50” value in assay [1] is < 5 log M.

B4: B1-33ox (peptide)
peptide: DSWMEEVIKLCGRELVRAQIAICGMSTWSKRSL-NH2
modifications: not fully specified (bridges); printed as DSWMEEVIKLCGRELVRAQIAICGMSTWSKRSL-NH2; cysteine pairing not given here
On to B4, for which the “cAMP pEC50” value in assay [1] was < 5 log M. The molecule further had a pKi in assay [2] of 6.61 log M.

With DSWMEEVIKLSGRELVRAQIAISGMSTWSKRSL-NH2 [B1-33 C11.23S], the “cAMP pEC50” value in assay [1] worked out at 5.1 log M. Also, the pKi in assay [2] came out at 5.33 log M.

B5: Native B7-33 (peptide)
peptide: VIKLCGRELVRAQIAICGMSTWSKRSL-NH2
modifications: not fully specified; printed as VIKLCGRELVRAQIAICGMSTWSKRSL-NH2; also: oxidised (ox), disulfide pattern not described
notes: also called B7-33ox
Consider B5, for which the “cAMP pEC50” value in assay [1] was 5.11 log M. In assay [2], this molecule returned a pKi of 6.15 log M.

Regarding Ac-VIKLSGRELVRAQAAISGMSTWSKRSL-NH2 [I20A (AcB7-33 C11.23S)], the “cAMP pEC50” value in assay [1] was < 5 log M.

In assay [3], Ac-VIKLSGAELVAAQAAISGMSTWSKRSL-NH2 [R13/17A I20A (AcB7-33 C11.23S)] yielded a pKi of 5.54 log M. For the same molecule, the cAMP pEC50 in assay [4] was < 5 log M.

For the molecule VIKLSGRELVKAQIAISGMSTWSKRSL-NH2 [B7-33 C11.23S R17K], the “cAMP pEC50” value in assay [1] is < 5 log M.

Turning to Ac-VIKLSGRELVAAQIAISGMSTWSKRSL-NH2 [R17A (AcB7-33 C11.23S)], the pKi in assay [3] is 6.01 log M. In assay [4], the cAMP pEC50 is < 5 log M.

As for Ac-VIKLSGRELVRAQIAISGMSTWSKRSL-NH2 [AcB7-33 C11.23S], the “cAMP pEC50” value in assay [1] is 5.4 log M. Further, the pKi stood at 7.54 log M in assay [3] and 6 log M in assay [2].

Ac-VIKLSGAELVRAQIAISGMSTWSKRSL-NH2 [R13A (AcB7-33 C11.23S)] yielded a pKi in assay [3] of 5.76 log M. In addition, in assay [4], the cAMP pEC50 was < 5 log M.

B6: Modified B7-33 (B7-33 C11.23S) (peptide)
peptide: VIKLSGRELVRAQIAISGMSTWSKRSL-NH2
notes: also called single chain B7-33 C11.23S peptide
B6: the “cAMP pEC50” value in assay [1] turned out to be 5.12 log M. For the same molecule, the pKi worked out at 7.65 log M in assay [3] and 5.54 log M in assay [2].

For the origin of these results see patent US20170037106A1 (FLOREY INSTITUTE OF NEUROSCIENCE AND MENTAL HEALTH, published 2017).
